Patent publication US20220249679A1 (MITSUBISHI TANABE PHARMA, published 2022)
Several values for one entry are separate records, joined by “and”; a condition that tells them apart may be missing. Equal values may be shown once.

T1: Human FGFR3c on transfected CHO cells (human, UniProt P22607 23-375)
T1 sequence: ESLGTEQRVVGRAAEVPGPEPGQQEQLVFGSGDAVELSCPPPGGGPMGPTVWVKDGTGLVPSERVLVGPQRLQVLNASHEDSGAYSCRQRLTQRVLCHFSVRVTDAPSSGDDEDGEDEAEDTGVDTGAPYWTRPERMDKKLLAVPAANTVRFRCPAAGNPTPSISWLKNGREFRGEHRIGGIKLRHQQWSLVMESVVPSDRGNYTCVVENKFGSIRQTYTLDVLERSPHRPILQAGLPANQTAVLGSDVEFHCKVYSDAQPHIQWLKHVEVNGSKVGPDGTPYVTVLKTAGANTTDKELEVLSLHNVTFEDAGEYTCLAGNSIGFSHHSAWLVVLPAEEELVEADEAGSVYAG

T2: Human FGFR3b on transfected CHO cells (human)
T2 chain: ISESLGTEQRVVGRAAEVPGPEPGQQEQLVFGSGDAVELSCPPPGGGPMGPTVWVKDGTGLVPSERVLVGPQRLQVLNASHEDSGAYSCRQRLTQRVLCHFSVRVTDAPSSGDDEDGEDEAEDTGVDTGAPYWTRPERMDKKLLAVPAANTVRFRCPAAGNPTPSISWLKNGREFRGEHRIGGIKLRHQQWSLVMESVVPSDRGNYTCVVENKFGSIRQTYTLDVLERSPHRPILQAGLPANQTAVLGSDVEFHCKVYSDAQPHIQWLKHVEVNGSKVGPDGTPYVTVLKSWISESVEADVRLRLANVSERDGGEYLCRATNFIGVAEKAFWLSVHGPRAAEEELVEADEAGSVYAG

T3: hCD138 (ELISA of Table 29) (human, UniProt P18827 23-254, limits assumed)
T3 construct: also called human CD138
T3 sequence: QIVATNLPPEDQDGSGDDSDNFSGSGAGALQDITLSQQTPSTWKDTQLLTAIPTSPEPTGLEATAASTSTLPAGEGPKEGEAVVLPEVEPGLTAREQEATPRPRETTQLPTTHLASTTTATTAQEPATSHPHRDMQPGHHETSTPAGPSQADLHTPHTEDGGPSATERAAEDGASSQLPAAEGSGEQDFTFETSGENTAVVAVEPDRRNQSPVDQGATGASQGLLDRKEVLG

T4: Mouse CD138 His (mouse, UniProt P18828 23-255)
T4 construct: also called mCD138
T4 sequence: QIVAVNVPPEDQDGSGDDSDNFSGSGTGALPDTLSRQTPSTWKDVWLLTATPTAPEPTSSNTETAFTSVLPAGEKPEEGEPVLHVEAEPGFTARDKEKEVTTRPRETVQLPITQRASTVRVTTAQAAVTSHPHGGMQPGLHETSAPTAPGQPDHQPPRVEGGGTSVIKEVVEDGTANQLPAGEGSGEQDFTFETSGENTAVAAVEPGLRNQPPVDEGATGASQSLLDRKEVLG

T5: Human CD138 His (human, UniProt P18827 23-254)
T5 construct: also called hCD138
T5 sequence: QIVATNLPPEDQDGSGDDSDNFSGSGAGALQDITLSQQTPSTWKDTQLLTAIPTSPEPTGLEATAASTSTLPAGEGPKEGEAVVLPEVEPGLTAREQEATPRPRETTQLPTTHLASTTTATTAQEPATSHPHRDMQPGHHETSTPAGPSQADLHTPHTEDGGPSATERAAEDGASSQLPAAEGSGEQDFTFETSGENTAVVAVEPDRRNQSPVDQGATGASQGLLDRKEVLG

T6: Cynomolgus monkey CD138 on transfected Expi293 cells (cynomolgus monkey, UniProt P18827 23-310 (human entry))
T6 construct: also called cyno CD138
T6 chain: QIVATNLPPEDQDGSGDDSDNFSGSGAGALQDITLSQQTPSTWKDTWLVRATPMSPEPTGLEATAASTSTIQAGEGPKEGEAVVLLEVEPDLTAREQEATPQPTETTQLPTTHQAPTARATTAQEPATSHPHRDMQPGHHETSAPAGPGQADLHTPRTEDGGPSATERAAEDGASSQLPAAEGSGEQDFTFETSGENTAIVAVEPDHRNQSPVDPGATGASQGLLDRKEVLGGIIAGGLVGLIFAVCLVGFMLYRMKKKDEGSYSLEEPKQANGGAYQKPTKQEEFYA

T7: Mouse CD138 (ELISA binding assay, data not shown) (mouse, UniProt P18828 23-255, limits assumed)
T7 construct: Construct used in the ELISA is not described
T7 sequence: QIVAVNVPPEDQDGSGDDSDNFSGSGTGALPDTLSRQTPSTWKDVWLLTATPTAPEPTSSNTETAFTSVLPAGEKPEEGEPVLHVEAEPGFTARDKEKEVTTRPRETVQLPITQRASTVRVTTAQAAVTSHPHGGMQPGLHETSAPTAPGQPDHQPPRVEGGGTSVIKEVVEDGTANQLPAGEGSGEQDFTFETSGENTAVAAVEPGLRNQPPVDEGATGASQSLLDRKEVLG


Experiments:
[1] = biological target: T1, Human FGFR3c on transfected CHO cells; assay: FACS histogram on CHO cells expressing human FGFR3c (panel title FGFR3c K.I.); concentration not given
Excerpt: (§1) CHO cells (Chinese Hamster Ovary cells) were transfected to express the human FGFR3c (FIG. 16A) or human FGFR3b (FIG. 16B) on the cell surface.

[2] = biological target: T2, Human FGFR3b on transfected CHO cells; assay: FACS histogram on CHO cells expressing human FGFR3b (panel title FGFR3b K.I.); concentration not given
Excerpt: as §1

[3] = biological target: T3, hCD138 (ELISA of Table 29); assay: hCD138 ELISA
Mouse CD138 His [4] = biological target: T4, Mouse CD138 His; assay: SPR (BioRad Proteon), mouse CD138 His immobilized, bivalent analyte fit
Procedure: (§2) Murine IgGs were purified from the hybridoma supernatants and the IgGs were subject to SPR (surface plasmon resonance) for kinetic binding measurements. Human or mouse CD138 His was immobilized on a GLM chip at […] on a BioRad Proteon. […] KDs were measured using bivalent analyte fit.

Human CD138 His [5] = biological target: T5, Human CD138 His; assay: SPR, summary table
Procedure: as §2

Mouse CD138 His [6] = biological target: T4, Mouse CD138 His; assay: SPR, summary table
Procedure: as §2

Human CD138 His [7] = biological target: T5, Human CD138 His; assay: SPR (BioRad Proteon), CD138 His immobilized, bivalent analyte fit
Procedure: as §2

[8] = biological target: T6, Cynomolgus monkey CD138 on transfected …; assay: FACS titration on Expi293 cells transfected with cynomolgus CD138
Excerpt: Briefly, a vector directing the cell-surface expression of human CD138 or cyno CD138 was transfected in Expi293 cells.

[9] = biological target: T7, Mouse CD138 (ELISA binding assay, data …); assay: ELISA binding assay

| Kd (Human CD138 His [5]) [nM] | Kd (Human CD138 His [7]) | koff (Human CD138 His [7]) [s⁻¹] | kon (Human CD138 His [7]) [M⁻¹ s⁻¹] | Binder | other results |
| --- | --- | --- | --- | --- | --- |
|  |  |  |  | hF6-HN-G7 (bispecific antibody, human IgG1, kappa, G7 Fynomer fused through the linker to the N-terminus of the hF6 heavy chain; IgG1/kappa) heavy: not shown light: DVVMTQTPLSLSVTPGQPASISCKSSQSLLASDGKTYLNWLLQRPGQSPKRLIYLVSKLDSGVPNRFSGSGSGTDFTLQISRVEAEDVGLYYCWQGAHFPFTFGSGTKLEIKRTVAAPSVFIFPPSDEQLKSGTASVVCLLNNFYPREAKVQWKVDNALQSGNSQESVTEQDSKDSTYSLSSTLTLSKADYEKHKVYACEVTHQGLSSPVTKSFNRGEC | binding result [1]: binds; binding result [2]: binds; EC50 [3]: 0.69 nM |
| 29 | 28.6 nM | 0.018 | 631000 | F12P18D4.a (antibody, V domains shown, Murine IgG purified from hybridoma supernatant) VH: EVQLQQSGPELVKPGASVKMSCKASGYTFADYYMKWVKQSHGKSLEWIGDINPNSGDTFYNHKFKGKATLTVDKSSSTAYMQLNSLTSEDSAVYYCARTYYDYWGQGTTLTVSS VL: not shown | Kd (Mouse CD138 His [4]): 672 nM; Kd (Mouse CD138 His [6]): 672 nM |
|  |  |  |  | 13P30A7 hIgG1 (antibody, V domains shown, Chimeric antibody: murine variable regions of F13P30A7 with constant regions of human IgG1, kappa isotype; also called chP30A7; chP30a7) VH: EVQLVESGGGLVQPKGSLKLSCAASGFTFNTYAMNWVRQAPGKGLEWIARIRSKSNNYATYYADSVKDRFTISRDDSQSLLYLQMNNLKTEDTAIFYCVTDYGYVYFDAWGAGTTVTVSS VL: NIIMTQSPKSMAMSVGERVTLSCKASENVGNYVSWYQQKPEQSPKLLIYGASYRYTGVPDRFTGSGSGTDFTLTISSVQAEDLADYHCGQSSRYPLTFGAGTKLELKR | binding result [8]: binds |
| 2 | 1.88 nM and 1.9 nM | 0.000523 | 278000 | F13P18D8 (antibody, V domains shown, Murine IgG purified from hybridoma supernatant) VH: EVQLLESGGGLVQPEGSLKLSCAASGFAFNTYAMNWVRQAPGKGLEWLARIRSKSNNYATYYADSVKDRFTISRDDSQGMLYLQMNNLKTEDTAMYYCVTDYYYVYFDVWGAGTTVTVSS VL: NIVMTQSPKSMSMSVGERVTLSCKASENVGTYVSWYQQKSDQSPKLLIYGASNRYTGVPDRFTGSGSATDFTLTITSVQSEDLADYHCGQSSRYPLTFGAGTKLELKR | binding result [9]: no binding |
